This assay concerns the target Skp1 (mouse, endogenous in RAW264.7 cells) (mouse (endogenous in RAW264.7)) (UniProt Q9WTX5).
Sequence of UniProt Q9WTX5 (Q9WTX5 whole entry): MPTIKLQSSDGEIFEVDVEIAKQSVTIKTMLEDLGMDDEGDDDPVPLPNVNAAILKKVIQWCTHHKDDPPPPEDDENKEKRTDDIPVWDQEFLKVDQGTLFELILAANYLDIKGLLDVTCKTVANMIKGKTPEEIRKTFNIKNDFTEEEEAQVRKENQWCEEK

In turn, “GogB-NT (amino acids 1-253, N-terminal LRR domain), HA-tagged, delivered by the T3SS (domain or fragment)” registered an NFκB-driven luciferase in RAW264.7 cells infected with ΔgogB complemented with GogB-NT (C-terminal domain deleted), fold of wild type Salmonella (fold of wild type) of 4.
Turning to “GogB Δ264–352 (in-frame deletion of the F-box-like domain), HA-tagged, delivered by the T3SS (natural protein)”, the NFκB-driven luciferase in RAW264.7 cells infected with ΔgogB complemented with GogBΔ264–352 (F-box motif deleted), fold of wild type Salmonella (fold of wild type) came to 4.

These data come from PMC3386239.
